Like-named read-outs stand apart in the source and are kept apart here.
Assays:
[1] = biological target: T1, sNEP (engineered soluble form of NEP) (Oryctolagus cuniculus, UniProt P08049); assay: sNEP enzymatic activity assay with (Tyrosyl-[3,5-3H])(D-Ala2)-Leu5-enkephalin as substrate; type: biochemical; settings: inhibition of sNEP/NEP activity
T1 construct: Fusion of a cleavable signal peptide to the ectodomain of neutral endopeptidase; cleavable signal peptide of proopiomelanocortin (replaces cytosolic and transmembrane domains) (N, cleaved yes); made in house; host or cells: LLC-PK1 cells transfected with pRcCMV-sNEP; concentrated culture medium
T1 sequence (P08049 52-750 limits assumed): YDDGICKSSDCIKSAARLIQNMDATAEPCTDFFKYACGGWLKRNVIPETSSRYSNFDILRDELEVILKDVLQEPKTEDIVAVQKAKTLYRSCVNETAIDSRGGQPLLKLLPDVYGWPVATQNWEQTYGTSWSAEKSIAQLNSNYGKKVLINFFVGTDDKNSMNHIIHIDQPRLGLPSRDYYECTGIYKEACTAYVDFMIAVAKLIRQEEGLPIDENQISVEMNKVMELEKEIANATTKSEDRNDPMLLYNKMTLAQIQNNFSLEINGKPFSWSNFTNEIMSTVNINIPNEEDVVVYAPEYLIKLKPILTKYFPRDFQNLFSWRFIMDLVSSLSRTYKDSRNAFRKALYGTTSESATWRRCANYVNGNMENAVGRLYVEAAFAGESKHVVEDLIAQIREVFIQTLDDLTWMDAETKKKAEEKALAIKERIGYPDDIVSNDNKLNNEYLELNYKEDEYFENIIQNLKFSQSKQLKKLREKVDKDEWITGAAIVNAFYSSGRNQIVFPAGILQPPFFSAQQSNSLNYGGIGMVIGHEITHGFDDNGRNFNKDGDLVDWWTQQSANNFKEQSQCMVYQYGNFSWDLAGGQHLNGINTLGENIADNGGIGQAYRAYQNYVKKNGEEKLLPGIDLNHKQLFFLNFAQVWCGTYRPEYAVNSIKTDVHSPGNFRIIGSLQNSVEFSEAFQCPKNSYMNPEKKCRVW

[2] = biological target: T2, sNEP (Oryctolagus cuniculus, UniProt P08049); assay: HPLC analysis of the hydrolysis of Leu-enkephalin by sNEP; type: biochemical; settings: phosphoramidon 1 μM, Leu5-enkephalin, RP-HPLC
T2 construct: Fusion of a cleavable signal peptide to the ectodomain of neutral endopeptidase; cleavable signal peptide of proopiomelanocortin (replaces cytosolic and transmembrane domains) (N, cleaved yes); made in house; host or cells: LLC-PK1 cells transfected with pRcCMV-sNEP; concentrated culture medium
T2 sequence (P08049 52-750 limits assumed): T1 sequence (P08049 52-750 limits assumed)
Source text: (§1) Hydrolysis products were separated by reversed-phase HPLC as described previously.

[3] = biological target: T3, NL1 (Mus musculus, UniProt Q9JLI3); assay: HPLC analysis of the hydrolysis of Leu-enkephalin by NL1; type: biochemical; set-up: The soluble form of NL-1 was assayed for activity; made in house; host or cells: HEK 293 cells (section 2, pCDNA3/RSV); settings: phosphoramidon 1 μM; Leu5-enkephalin; NL1 from medium of HEK/NL1 cells; RP-HPLC
T3 sequence (Q9JLI3 63-765 limits assumed): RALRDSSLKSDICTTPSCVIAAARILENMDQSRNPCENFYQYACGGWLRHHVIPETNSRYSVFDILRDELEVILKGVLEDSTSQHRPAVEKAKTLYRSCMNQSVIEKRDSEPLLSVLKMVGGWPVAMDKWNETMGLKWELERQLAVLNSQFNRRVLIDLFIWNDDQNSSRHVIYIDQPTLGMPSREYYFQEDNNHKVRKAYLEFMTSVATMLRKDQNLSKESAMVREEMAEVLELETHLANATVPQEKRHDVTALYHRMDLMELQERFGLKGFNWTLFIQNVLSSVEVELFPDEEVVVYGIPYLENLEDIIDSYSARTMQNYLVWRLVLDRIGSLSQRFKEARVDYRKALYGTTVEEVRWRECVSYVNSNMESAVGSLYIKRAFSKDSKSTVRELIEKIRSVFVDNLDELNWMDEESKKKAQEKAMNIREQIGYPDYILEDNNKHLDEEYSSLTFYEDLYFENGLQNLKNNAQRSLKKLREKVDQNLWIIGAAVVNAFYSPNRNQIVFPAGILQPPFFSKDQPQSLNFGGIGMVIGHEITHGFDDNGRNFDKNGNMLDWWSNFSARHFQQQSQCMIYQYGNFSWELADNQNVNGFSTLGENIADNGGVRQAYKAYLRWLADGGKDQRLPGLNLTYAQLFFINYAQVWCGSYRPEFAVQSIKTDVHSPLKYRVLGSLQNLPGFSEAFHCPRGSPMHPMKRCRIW
Source text: as §1

[4] = biological target: T3, NL1; assay: NL-1 enzymatic activity assay with (Tyrosyl-[3,5-3H])(D-Ala2)-Leu5-enkephalin as substrate; type: biochemical; set-up: The soluble form of NL-1 was assayed for activity; made in house; host or cells: CHO cells (section 1, pcDNA3-RSV) and HEK 293 cells (section 2, pCDNA3/RSV); settings: inhibition of NL-1 degradation of the enkephalin substrate
Method: Extracts of cellular proteins and culture media were assayed for enzymatic activity. Two tests were performed. The first used [^3H]-Tyr-(D)Ala2-Leu-enkephalin as substrate and was performed according to Lemay et al., (1989). The second used bradykinin as substrate and was performed as described by Raut et al. (1999).
NL1 activity was monitored and compared to sNEP activity using (Tyrosyl-[3,5-^3H])(D-Ala2)-Leu5-enkephalin (50 Ci/mmol) (Research Products International Inc.), as already described (Dion 1995; Devault 1988). Km values were determined by the isotope-dilution method.

[5] = system: T4, (Tyrosyl-[3,5-3H])(D-Ala2)-Leu5-enkephalin
T4 sequence: YAGFL

[6] = system: T5, Leu5-enkephalin
T5 sequence: YGGFL

[7] = system: NL1 secretion (subtilisin-like convertase processing) in HEK 293 cells; assay: Immunoblot of culture media of HEK 293 cells co-expressing NL1 and α1-PDX; type: cell-based, Human; settings: transient co-transfection, increasing amounts of α1-PDX plasmid; related to the amount
Method: Human Embryonic Kidney (HEK 293) cells were maintained in DMEM medium containing 10% fetal bovine serum (FBS), and supplemented with penicillin at 60 μg/ml, streptomycin at 100 μg/ml and fongizone at 0.25 μg/ml. Transfections of cells with appropriate plasmids were performed by the calcium/phosphate-DNA co-precipitation method (Chang 1987).
For immunoblot analysis, cells were incubated for 16 h in synthetic DMEM medium containing 2 mM sodium butyrate. Cellular proteins were solubilized as previously described (Dion 1995). Secreted proteins recovered in culture media were concentrated approximately 10 fold by ultrafiltration. Immunoblot analysis were performed using the NEN Renaissance kit with the polyclonal antibody specific to NL1 or the α1-antitrypsin inhibitor antibody (Calbiochem; LaJolla, Calif.) followed by the appropriate horseradish peroxidase-conjugated IgG (Vector Laboratories).
To determine whether a member of the mammalian subtilisine-like convertase family is responsible for NL1 presence in the culture medium of transfected cells, we co-transfected transiently HEK 293 cells with a constant amount of plasmid pCDNA3/RSV/NL1 and increasing amounts of plasmid pCDNA3/CMV/PDX (Benjannet 1997). This latter vector promotes the expression of the α1-antitrypsin Portland variant, α1-PDX, a known inhibitor of subtilisin-like convertases (Anderson 1993).

[8] = biological target: T6, (Tyrosyl-[3,5-3H])(D-Ala2)-Leu5-enkephalin
T6 chain: YAGFL

[9] = biological target: T7, Leu5-enkephalin
T7 chain: YGGFL

[10] = biological target: bradykinin, P01042
bradykinin, P01042, sequence (P01042 whole entry, looked up): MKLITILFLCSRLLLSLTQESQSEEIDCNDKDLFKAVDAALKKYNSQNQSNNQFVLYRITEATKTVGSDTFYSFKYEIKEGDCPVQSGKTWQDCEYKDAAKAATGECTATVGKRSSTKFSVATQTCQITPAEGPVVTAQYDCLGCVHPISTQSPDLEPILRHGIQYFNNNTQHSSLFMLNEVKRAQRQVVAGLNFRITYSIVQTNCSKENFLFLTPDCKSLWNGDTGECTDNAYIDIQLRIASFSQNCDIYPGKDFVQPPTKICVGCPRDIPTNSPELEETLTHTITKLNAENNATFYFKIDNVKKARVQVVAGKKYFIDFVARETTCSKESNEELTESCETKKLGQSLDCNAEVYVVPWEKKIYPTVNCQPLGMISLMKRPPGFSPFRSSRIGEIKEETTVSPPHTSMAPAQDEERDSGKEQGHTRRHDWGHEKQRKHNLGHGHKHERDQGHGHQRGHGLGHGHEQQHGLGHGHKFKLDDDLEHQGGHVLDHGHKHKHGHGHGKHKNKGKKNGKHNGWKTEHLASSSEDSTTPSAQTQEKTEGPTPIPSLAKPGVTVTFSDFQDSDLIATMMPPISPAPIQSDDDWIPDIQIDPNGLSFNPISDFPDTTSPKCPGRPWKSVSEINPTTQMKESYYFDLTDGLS

Molecule: CC(C)C[C@H](NP(=O)(O)O[C@@H]1O[C@@H](C)[C@H](O)[C@@H](O)[C@H]1O)C(=O)N[C@@H](Cc1c[nH]c2ccccc12)C(=O)O [phosphoramidon]
- IC50 [1]: 0.5 nM
- inhibition of enkephalin-degrading activity [2]: completely inhibited
- inhibition of enkephalin-degrading activity [3]: completely inhibited
- IC50 [4]: 0.9 nM

Molecule: engineered soluble form of NEP (sNEP)
- Km [5]: Km values of 18 µM and 73 µM, respectively
- cleavage products by RP-HPLC [6]: both enzymes cleaved the substrate at the Gly3-Phe4 peptide bond

Molecule: α1-PDX: α1-antitrypsin Portland variant, a known inhibitor of subtilisin-like convertases, expressed from plasmid pCDNA3/CMV/PDX
- effect on NL1 secretion [7]: strongly inhibited

Molecule: O=C(O)CNC(=O)C(CS)Cc1ccccc1 (centres unmarked) [thiorphan]
- IC50 [4]: 47 nM

B1: soluble form of NL-3 (NL-3 ectodomain secreted by means of the NL-1 amino-terminal domain) (protein)
chain: KYLGPVAAGGGACPEGCPERKAFARAARFLAANLDASIDPCQDFYSFACGGWLRRHAIPDDKLTYGTIAAIGEQNEERLRRLLARPGGGPGGAAQRKVRAFFRSCLDMREIERLGPRPMLEVIEDCGGWDLGGAEERPGVAARWDLNRLLYKAQGVYSAAALFSLTVSLDDRNSSRYVIRIDQDGLTLPERTLYLAQDEDSEKVLAAYRVFMERVLSLLGADAVEQKAQEILQVEQQLANITVSEYDDLRRDVSSMYNKVTLGQLQKITPHLRWKWLLDQIFQEDFSEEEEVVLLATDYMQQVSQLIRSTPHRVLHNYLVWRVVVVLSEHLSPPFREALHELAQEMEGSDKPQELARVCLGQANRHFGMALGALFVHEHFSAASKAKVQQLVEDIKYILGQRLEELDWMDAETRAAARAKLQYMMVMVGYPDFLLKPDAVDKEYEFEVHEKTYFKNILNSIRFSIQLSVKKIRQEVDKSTWLLPPQALNAYYLPNKNQMVFPAGILQPTLYDPDFPQSLNYGGIGTIIGHELTHGYDDWGGQYDRSGNLLHWWTEASYSRFLRKAECIVRLYDNFTVYNQRVNGKHTLGENIADMGGLKLAYHAYQKWVREHGPEHPLPRLKYTHDQLFFIAFAQNWCIKRRSQSIYLQVLTDKHAPEHYRVLGSVSQFEEFGRVLHCPKVSPMNPAHKCSVW
- enzymatic activity [8]: No activity was found.

B2: soluble NL-1 (secreted form of mouse NL-1 recovered from culture medium) (protein)
chain: GKQLPLLTSLLHFSWDERTVVKRALRDSSLKSDICTTPSCVIAAARILENMDQSRNPCENFYQYACGGWLRHHVIPETNSRYSVFDILRDELEVILKGVLEDSTSQHRPAVEKAKTLYRSCMNQSVIEKRDSEPLLSVLKMVGGWPVAMDKWNETMGLKWELERQLAVLNSQFNRRVLIDLFIWNDDQNSSRHVIYIDQPTLGMPSREYYFQEDNNHKVRKAYLEFMTSVATMLRKDQNLSKESAMVREEMAEVLELETHLANATVPQEKRHDVTALYHRMDLMELQERFGLKGFNWTLFIQNVLSSVEVELFPDEEVVVYGIPYLENLEDIIDSYSARTMQNYLVWRLVLDRIGSLSQRFKEARVDYRKALYGTTVEEVRWRECVSYVNSNMESAVGSLYIKRAFSKDSKSTVRELIEKIRSVFVDNLDELNWMDEESKKKAQEKAMNIREQIGYPDYILEDNNKHLDEEYSSLTFYEDLYFENGLQNLKNNAQRSLKKLREKVDQNLWIIGAAVVNAFYSPNRNQIVFPAGILQPPFFSKDQPQSLNFGGIGMVIGHEITHGFDDNGRNFDKNGNMLDWWSNFSARHFQQQSQCMIYQYGNFSWELADNQNVNGFSTLGENIADNGGVRQAYKAYLRWLADGGKDQRLPGLNLTYAQLFFINYAQVWCGSYRPEFAVQSIKTDVHSPLKYRVLGSLQNLPGFSEAFHCPRGSPMHPMKRCRIW
- Km [8]: Km values of 18 µM and 73 µM, respectively
- Km (degradation of the enkephalin substrate) [8]: Km=18±10 µM
- enzymatic activity in culture medium [8]: Activity was detected in the culture medium of HEK/NL1 cells but not in that of HEK 293 cells
- cleavage products by RP-HPLC [9]: both enzymes cleaved the substrate at the Gly3-Phe4 peptide bond
- substrate degradation [10]: Bradykinin is also a substrate for NL-1 (not shown)
